From patent US20230074436A1 (DENALI THERAPEUTICS, published 2023)
No end group written: not given here. *: point of attachment. Biotin = O=C1N[C@H]2[C@H](CS[C@H]2CCCCC(=O)*)N1

Experiments:
asyn_113-127 [1] = molecular target: T1, asyn_113-127 (human); test: Ala-scan peptide ELISA, row A, run 2; also: test concentration or dose not given here
T1 construct: also called pep1
T1 peptide: Biotin-LEDMPVDPDNEAYEM

asyn_113-127_113A [2] = molecular target: T2, asyn_113-127_113A (human); test: Ala-scan peptide ELISA, row A, run 2; also: test concentration or dose not given here
T2 construct: substitution is already in the entry; also called pep2
T2 peptide: Biotin-AEDMPVDPDNEAYEM

asyn_113-127_114A = molecular target: T3, asyn_113-127_114A (human); test: Ala-scan peptide ELISA, row A, run 2; also: test concentration or dose not given here
T3 construct: substitution is already in the entry; also called pep3
T3 peptide: Biotin-LADMPVDPDNEAYEM

asyn_113-127_115A [3] = molecular target: T4, asyn_113-127_115A (human); test: Ala-scan peptide ELISA, row A, run 2; also: test concentration or dose not given here
T4 construct: substitution is already in the entry; also called pep4
T4 peptide: Biotin-LEAMPVDPDNEAYEM

asyn_113-127_116A [4] = molecular target: T5, asyn_113-127_116A (human); test: Ala-scan peptide ELISA, row A, run 2; also: test concentration or dose not given here
T5 construct: substitution is already in the entry; also called pep5
T5 peptide: Biotin-LEDAPVDPDNEAYEM

asyn_113-127_117A = molecular target: T6, asyn_113-127_117A (human); test: Ala-scan peptide ELISA, row A, run 2; also: test concentration or dose not given here
T6 construct: substitution is already in the entry; also called pep6
T6 peptide: Biotin-LEDMAVDPDNEAYEM

asyn_113-127_118A [5] = molecular target: T7, asyn_113-127_118A (human); test: Ala-scan peptide ELISA, row A, run 2
T7 construct: substitution is already in the entry; also called pep7
T7 peptide: Biotin-LEDMPADPDNEAYEM

asyn_113-127_119A [6] = molecular target: T8, asyn_113-127_119A (human); test: Ala-scan peptide ELISA, row A, run 2
T8 construct: substitution is already in the entry; also called pep8
T8 peptide: Biotin-LEDMPVAPDNEAYEM

asyn_113-127_120A [7] = molecular target: T9, asyn_113-127_120A (human); test: Ala-scan peptide ELISA, row A, run 2
T9 construct: substitution is already in the entry; also called pep9
T9 peptide: Biotin-LEDMPVDADNEAYEM

asyn_113-127_121A [8] = molecular target: T10, asyn_113-127_121A (human); test: Ala-scan peptide ELISA, row A, run 2
T10 construct: substitution is already in the entry; also called pep10
T10 peptide: Biotin-LEDMPVDPANEAYEM

asyn_113-127_122A = molecular target: T11, asyn_113-127_122A (human); test: Ala-scan peptide ELISA, row A, run 2
T11 construct: substitution is already in the entry; also called pep11
T11 peptide: Biotin-LEDMPVDPDAEAYEM

asyn_113-127_123A = molecular target: T12, asyn_113-127_123A (human); test: Ala-scan peptide ELISA, row A, run 2
T12 construct: substitution is already in the entry; also called pep12
T12 peptide: Biotin-LEDMPVDPDNAAYEM

asyn_113-127_124G [9] = molecular target: T13, asyn_113-127_124G (human); test: Ala-scan peptide ELISA, row A, run 2
T13 construct: substitution is already in the entry; also called pep13
T13 peptide: Biotin-LEDMPVDPDNEGYEM

asyn_113-127_124P [10] = molecular target: T14, asyn_113-127_124P (human); test: Ala-scan peptide ELISA, row A, run 2
T14 construct: substitution is already in the entry; also called pep14
T14 peptide: Biotin-LEDMPVDPDNEPYEM

asyn_113-127_125A [11] = molecular target: T15, asyn_113-127_125A (human); test: Ala-scan peptide ELISA, row A, run 2
T15 construct: substitution is already in the entry; also called pep15
T15 peptide: Biotin-LEDMPVDPDNEAAEM

asyn_113-127_126A [12] = molecular target: T16, asyn_113-127_126A (human); test: Ala-scan peptide ELISA, row A, run 2
T16 construct: substitution is already in the entry; also called pep16
T16 peptide: Biotin-LEDMPVDPDNEAYAM

asyn_113-127_127A = molecular target: T17, asyn_113-127_127A (human); test: Ala-scan peptide ELISA, row A, run 2
T17 construct: substitution is already in the entry; also called pep17
T17 peptide: Biotin-LEDMPVDPDNEAYEA

[13] = molecular target: T18, biotinylated human alpha-synuclein (human, UniProt P37840 1-140); test: Ala-scan peptide ELISA, row A, run 2
asyn_113-127_115A [14] = molecular target: T4, asyn_113-127_115A; test: Ala-scan peptide ELISA, row D, run 2
asyn_113-127_120A [15] = molecular target: T9, asyn_113-127_120A; test: Ala-scan peptide ELISA, row D, run 2
asyn_113-127_124G [16] = molecular target: T13, asyn_113-127_124G; test: Ala-scan peptide ELISA, row D, run 2
asyn_113-127_125A [17] = molecular target: T15, asyn_113-127_125A; test: Ala-scan peptide ELISA, row D, run 2
asyn_113-127_126A [18] = molecular target: T16, asyn_113-127_126A; test: Ala-scan peptide ELISA, row D, run 2
[19] = molecular target: T18, biotinylated human alpha-synuclein; test: Ala-scan peptide ELISA, row D, run 2
asyn_113-127 [20] = molecular target: T1, asyn_113-127; test: Ala-scan peptide ELISA, row E, run 2
asyn_113-127_113A [21] = molecular target: T2, asyn_113-127_113A; test: Ala-scan peptide ELISA, row E, run 2
asyn_113-127_115A [22] = molecular target: T4, asyn_113-127_115A; test: Ala-scan peptide ELISA, row E, run 2
asyn_113-127_116A [23] = molecular target: T5, asyn_113-127_116A; test: Ala-scan peptide ELISA, row E, run 2
asyn_113-127_118A [24] = molecular target: T7, asyn_113-127_118A; test: Ala-scan peptide ELISA, row E, run 2
asyn_113-127_119A [25] = molecular target: T8, asyn_113-127_119A; test: Ala-scan peptide ELISA, row E, run 2
asyn_113-127_120A [26] = molecular target: T9, asyn_113-127_120A; test: Ala-scan peptide ELISA, row E, run 2
asyn_113-127_121A [27] = molecular target: T10, asyn_113-127_121A; test: Ala-scan peptide ELISA, row E, run 2
asyn_113-127_124G [28] = molecular target: T13, asyn_113-127_124G; test: Ala-scan peptide ELISA, row E, run 2
asyn_113-127_124P [29] = molecular target: T14, asyn_113-127_124P; test: Ala-scan peptide ELISA, row E, run 2
asyn_113-127_125A [30] = molecular target: T15, asyn_113-127_125A; test: Ala-scan peptide ELISA, row E, run 2
[31] = molecular target: T18, biotinylated human alpha-synuclein; test: Ala-scan peptide ELISA, row E, run 2

B1: 20H4 (antibody, rat IgG2b, V domains shown)
VH: AVQLVESGGGLVQPKESLKISCAASGFTFSNAAMYWVRQAPGKGLELLARIRTKPNNYATYHADSVKGRFTISRDDSQSMVYLHMGNLKTEDTAMYYCTADMATGDYWGPGVMVTVSS
VL: DIQMTQSPPVLSVSVGDRVTLSCKASQNINKNLDWYQQKHGEAPKPLIYSTNNLQTGVPSRFSGSGSGTDYTLTISSLQPEDVATYYCYQYKSAWTFGGGTKLELR
notes: also called clone 20H4; rat 20H4
An A450 (asyn_113-127 [1]) of 0.374 OD, an A450 (asyn_113-127_113A [2]) of 0.44 OD and an A450 (asyn_113-127_114A) of 0.401 OD were found for B1 in this work. For the same binder, the A450 (asyn_113-127_115A [3]) was 0.405 OD, the A450 (asyn_113-127_116A [4]) was 0.418 OD and the A450 (asyn_113-127_117A) was 0.462 OD. It also gave an A450 (asyn_113-127_118A [5]) of 0.441 OD, an A450 (asyn_113-127_119A [6]) of 0.06 OD and an A450 (asyn_113-127_120A [7]) of 0.314 OD. The A450 (asyn_113-127_121A [8]) was 0.391 OD, the A450 (asyn_113-127_122A) was 0.08 OD and the A450 (asyn_113-127_123A) was 0.441 OD. The A450 (asyn_113-127_124G [9]) was 0.396 OD, the A450 (asyn_113-127_124P [10]) was 0.069 OD and the A450 (asyn_113-127_125A [11]) was 0.078 OD. For the same binder, the A450 (asyn_113-127_126A [12]) was 0.469 OD, the A450 (asyn_113-127_127A) was 0.504 OD and the A450 [13] was 0.907 OD. For the same binder, the A450 (asyn_113-127_115A [14]) was 0.266 OD, the A450 (asyn_113-127_120A [15]) was 0.18 OD and the A450 (asyn_113-127_124G [16]) was 0.287 OD. The A450 (asyn_113-127_125A [17]) was 0.05 OD, the A450 (asyn_113-127_126A [18]) was 0.342 OD and the A450 [19] was 0.767 OD. It also gave an A450 (asyn_113-127 [20]) of 0.242 OD, an A450 (asyn_113-127_113A [21]) of 0.237 OD and an A450 (asyn_113-127_115A [22]) of 0.145 OD. It also gave an A450 (asyn_113-127_116A [23]) of 0.247 OD, an A450 (asyn_113-127_118A [24]) of 0.256 OD and an A450 (asyn_113-127_119A [25]) of 0.045 OD. The A450 (asyn_113-127_120A [26]) was 0.15 OD, the A450 (asyn_113-127_121A [27]) was 0.223 OD and the A450 (asyn_113-127_124G [28]) was 0.215 OD. The A450 (asyn_113-127_124P [29]) was 0.047 OD, the A450 (asyn_113-127_125A [30]) was 0.049 OD and the A450 [31] was 0.531 OD.
